Measurements taken from patent US20220177587A1, “METHODS AND USES OF VARIANT CD80 FUSION PROTEINS AND RELATED CONSTRUCTS” (Alpine Immune Sciences, Inc., priority 2018, published 2022).

What was measured:
allogeneic CD4+ T cells = experiment: Mixed Lymphocyte Reaction (MLR), IFN-gamma; format: cell-based, human; conditions: culture supernatant
Method: Soluble rCD80.Fc bioactivity was tested in a human Mixed Lymphocyte Reaction (MLR). Human primary dendritic cells (DC) were generated by culturing monocytes isolated from PBMC (BenTech Bio, USA) in vitro for 7 days with 500U/ml rIL-4 (R&D Systems, USA) and 250 U/ml rGM-CSF (R&D Systems, USA) in Ex-Vivo 15 media (Lonza, Switzerland). 10,000 matured DC and 100,000 purified allogeneic CD4+ T cells (BenTech Bio, USA) were co-cultured with variant CD80 Fc fusion proteins and controls in 96 well round bottom plates in 200 μl final volume of Ex-Vivo 15 media. On day 5, IFN-gamma secretion in culture supernatants was analyzed using the Human IFN-gamma Duoset ELISA kit (R&D Systems, USA). Optical density was measured by VMax ELISA Microplate Reader (Molecular Devices, USA) and quantitated against titrated rIFN-gamma standard included in the IFN-gamma Duo-set kit (R&D Systems, USA).

human pan T cells = experiment: Anti-CD3 coimmobilization assay, IFN-gamma; format: cell-based; conditions: culture supernatant; for Coimmobilization with anti CD3 IFN-gamma: Table E32, variant ECD-Fc coimmobilized with anti-CD3; for Coimmobilization with anti-CD3 IFN-gamma: Table E33, 3 days
How it was run: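 Plates coated overnight with 1 nM or 4 nM OKT3 anti-CD3 plus 1–80 nM rCD80.Fc variants, then washed. Purified human pan T cells or BC3 T cell clone (100,000/well) cultured 3 days in Ex-Vivo 15; supernatant IFN-gamma measured by ELISA.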

[1] = Table E32, variant ECD-Fc in MLR assay

B1: A12V/S15F/Y31H/M38L/T41G/M43L/D90N/T130A/P137L/N149D/N152T (protein)
chain: VIHVTKEVKEVVTLFCGHNVSVEELAQTRIHWQKEKKLVLGMLSGDMNIWPEYKNRTIFDITNNLSIVILALRPSDEGTYECVVLKYEKNAFKREHLAEVTLSVKADFPTPSISDFEIPTSNIRRIICSASGGFPELHLSWLENGEELDAITTTVSQDPETELYAVSSKLDFNMTTNHSFMCLIKYGHLRVNQTFNWNTTKQEHFPDN
Q: B1 was tested. Which “MLR IFN-gamma levels” value (allogeneic CD4+ T cells; [1]) did it give?
A: The value was 711 pg/mL.

Q: What about the “Coimmobilization with anti CD3 IFN-gamma” value (human pan T cells) of the same molecule?
A: Its value is 104 pg/mL.

B2: R29D/Y31L/Q33H/K36G/M38I/T41A/M43R/M47T/E81V/L85R/K89N/A91T/F92P/K93V/R94L/I118T/N149S (protein)
chain: VIHVTKEVKEVATLSCGHNVSVEELAQTDILWHKEGKIVLAMRSGDTNIWPEYKNRTIFDITNNLSIVILALRPSDEGTYVCVVRKYENDTPVLEHLAEVTLSVKADFPTPSISDFETPTSNIRRIICSTSGGFPEPHLSWLENGEELSAINTTVSQDPETELYAVSSKLDFNMTTNHSFMCLIKYGHLRVNQTFNWNTTKQEHFPDN
Q: For B2, which “MLR IFN-gamma levels” value (allogeneic CD4+ T cells; Table E33) is on record?
A: The value was 5028 pg/mL.

Q: And the “Coimmobilization with anti-CD3 IFN-gamma” value (human pan T cells)?
A: Its value is 387 pg/mL.

B3: R29D/Y31L/Q33H/K36G/M38I/T41A/M43R/M47T/E81V/L85R/K89N/A91T/F92P/K93V/R94L/N144S/N149S (protein)
chain: VIHVTKEVKEVATLSCGHNVSVEELAQTDILWHKEGKIVLAMRSGDTNIWPEYKNRTIFDITNNLSIVILALRPSDEGTYVCVVRKYENDTPVLEHLAEVTLSVKADFPTPSISDFEIPTSNIRRIICSTSGGFPEPHLSWLESGEELSAINTTVSQDPETELYAVSSKLDFNMTTNHSFMCLIKYGHLRVNQTFNWNTTKQEHFPDN
Q: Which “MLR IFN-gamma levels” value (allogeneic CD4+ T cells; Table E33) does the source give for B3 here?
A: The value was 7943 pg/mL.

Q: What about the “Coimmobilization with anti-CD3 IFN-gamma” value (human pan T cells) of the same molecule?
A: Its value is 400 pg/mL.

B4: M38V/T41D/M43I/W50G/D76G/V83A/K89E/I118V/T120S/I126V/T130A (protein)
chain: VIHVTKEVKEVATLSCGHNVSVEELAQTRIYWQKEKKVVLDMISGDMNIGPEYKNRTIFDITNNLSIVILALRPSGEGTYECAVLKYEEDAFKREHLAEVTLSVKADFPTPSISDFEVPSSNIRRVICSASGGFPEPHLSWLENGEELNAINTTVSQDPETELYAVSSKLDFNMTTNHSFMCLIKYGHLRVNQTFNWNTTKQEHFPDN
Q: B4 was tested. Which “MLR IFN-gamma levels” value (allogeneic CD4+ T cells; [1]) did it give?
A: Its value is 671 pg/mL.

Q: What about the “Coimmobilization with anti CD3 IFN-gamma” value (human pan T cells) of the same molecule?
A: The value was 82 pg/mL.

B5: R29H/E52G/L70R/E88G/A91G/T130A (protein)
chain: VIHVTKEVKEVATLSCGHNVSVEELAQTHIYWQKEKKMVLTMMSGDMNIWPGYKNRTIFDITNNLSIVIRALRPSDEGTYECVVLKYGKDGFKREHLAEVTLSVKADFPTPSISDFEIPTSNIRRIICSASGGFPEPHLSWLENGEELNAINTTVSQDPETELYAVSSKLDFNMTTNHSFMCLIKYGHLRVNQTFNWNTTKQEHFPDN
modifications: CD80 v24 ECD
Q: What does the source list for B5?
A: MLR IFN-gamma levels (allogeneic CD4+ T cells; [1]): 740 pg/mL; Coimmobilization with anti CD3 IFN-gamma (human pan T cells): 200 pg/mL

B6: A91G/F92L/F108L/1118V/T120S (protein)
chain: VIHVTKEVKEVATLSCGHNVSVEELAQTRIYWQKEKKMVLTMMSGDMNIWPEYKNRTIFDITNNLSIVILALRPSDEGTYECVVLKYEKDGLKREHLAEVTLSVKADLPTPSISDFEVPSSNIRRIICSTSGGFPEPHLSWLENGEELNAINTTVSQDPETELYAVSSKLDFNMTTNHSFMCLIKYGHLRVNQTFNWNTTKQEHFPDN
Q: What does the source list for B6?
A: MLR IFN-gamma levels (allogeneic CD4+ T cells; [1]): 665 pg/mL; Coimmobilization with anti CD3 IFN-gamma (human pan T cells): 59 pg/mL

B7: I67T/L70Q/A91G/I118V/T120S (protein)
chain: VIHVTKEVKEVATLSCGHNVSVEELAQTRIYWQKEKKMVLTMMSGDMNIWPEYKNRTIFDITNNLSTVIQALRPSDEGTYECVVLKYEKDGFKREHLAEVTLSVKADFPTPSISDFEVPSSNIRRIICSTSGGFPEPHLSWLENGEELNAINTTVSQDPETELYAVSSKLDFNMTTNHSFMCLIKYGHLRVNQTFHWNTTKQEHFPDN
modifications: CD80 v144 ECD
Q: How did the “MLR IFN-gamma levels” value (allogeneic CD4+ T cells; [1]) turn out when B7 was run?
A: The value was 794 pg/mL.

Q: And the “Coimmobilization with anti CD3 IFN-gamma” value (human pan T cells)?
A: The value was 1751 pg/mL.

B8: L70Q/A91G/T110A/I118V/T120S/T130A (protein)
chain: VIHVTKEVKEVATLSCGHNVSVEELAQTRIYWQKEKKMVLTMMSGDMNIWPEYKNRTIFDITNNLSIVIQALRPSDEGTYECVVLKYEKDGFKREHLAEVTLSVKADFPAPSISDFEVPSSNIRRIICSASGGFPEPHLSWLENGEELNAINTTVSQDPETELYAVSSKLDFNMTTNHSFMCLIKYGHLRVNQTFNWNTTKQEHFPDN
modifications: CD80 v145 ECD
Q: Which results are given for B8?
A: MLR IFN-gamma levels (allogeneic CD4+ T cells; [1]): 656 pg/mL; Coimmobilization with anti CD3 IFN-gamma (human pan T cells): 77 pg/mL

B9: R29H/E52G/D90N/I118V/T120S/T130A (protein)
chain: VIHVTKEVKEVATLSCGHNVSVEELAQTHIYWQKEKKMVLTMMSGDMNIWPGYKNRTIFDITNNLSIVILALRPSDEGTYECVVLKYEKNAFKREHLAEVTLSVKADFPTPSISDFEVPSSNIRRIICSASGGFPEPHLSWLENGEELNAINTTVSQDPETELYAVSSKLDFNMTTNHSFMCLIKYGHLRVNQTFNWNTTKQEHFPDN
modifications: CD80 v142 ECD
Q: With B9 as the molecule, how does the “MLR IFN-gamma levels” value (allogeneic CD4+ T cells; [1]) read?
A: The value was 800 pg/mL.

Q: And the “Coimmobilization with anti CD3 IFN-gamma” value (human pan T cells)?
A: The value was 124 pg/mL.

B10: V68A/T110A (protein)
chain: VIHVTKEVKEVATLSCGHNVSVEELAQTRIYWQKEKKMVLTMMSGDMNIWPEYKNRTIFDITNNLSIAILALRPSDEGTYECVVLKYEKDAFKREHLAEVTLSVKADFPAPSISDFEIPTSNIRRIICSTSGGFPEPHLSWLENGEELNAINTTVSQDPETELYAVSSKLDFNMTTNHSFMCLIKYGHLRVNQTFNWNTTKQEHFPDN
modifications: CD80 v26 ECD
Q: Which results are given for B10?
A: MLR IFN-gamma levels (allogeneic CD4+ T cells; [1]): 861 pg/mL; Coimmobilization with anti CD3 IFN-gamma (human pan T cells): 163 pg/mL

B11: Y31H/T41G/M43L/L70Q/A91G/I118V/T120S//I126V/T130A (protein)
chain: VIHVTKEVKEVATLSCGHNVSVEELAQTRIHWQKEKKMVLGMLSGDMNIWPEYKNRTIFDITNNLSIVIQALRPSDEGTYECVVLKYEKDGFKREHLAEVTLSVKADFPTPSISDFEVPSSNIRRVICSASGGFPEPHLSWLENGEELNAINTTVSQDPETELYAVSSKLDFNMTTNHSFMCLIKYGHLRVNQTFNWNTTKQEHFPDN
Q: With B11 as the molecule, how does the “MLR IFN-gamma levels” value (allogeneic CD4+ T cells; [1]) read?
A: The value was 782 pg/mL.

Q: And the “Coimmobilization with anti CD3 IFN-gamma” value (human pan T cells)?
A: The value was 288 pg/mL.

B12: E24G/L25P/L70Q/A91G/I118V/T120S/N152T (protein)
chain: VIHVTKEVKEVATLSCGHNVSVEGPAQTRIYWQKEKKMVLTMMSGDMNIWPEYKNRTIFDITNNLSIVIQALRPSDEGTYECVVLKYEKDGFKREHLAEVTLSVKADFPTPSISDFEVPSSNIRRIICSTSGGFPEPHLSWLENGEELNAITTTVSQDPETELYAVSSKLDFNMTTNHSFMCLIKYGHLRVNQTFNWNTTKQEHFPDN
modifications: CD80 v149 ECD
Q: Which results are given for B12?
A: MLR IFN-gamma levels (allogeneic CD4+ T cells; [1]): 969 pg/mL; Coimmobilization with anti CD3 IFN-gamma (human pan T cells): 101 pg/mL

B13: I67F/L70R/E88G/A91G/I118V/T120S/T130A (protein)
chain: VIHVTKEVKEVATLSCGHNVSVEELAQTRIYWQKEKKMVLTMMSGDMNIWPEYKNRTIFDITNNLSFVIRALRPSDEGTYECVVLKYGKDGFKREHLAEVTLSVKADFPTPSISDFEVPSSNIRRIICSASGGFPEPHLSWLENGEELNAINTTVSQDPETELYAVSSKLDFNMTTNHSFMCLIKYGHLRVNQTFNWNTTKQEHFPDN
modifications: CD80 v148 ECD
Q: For B13, which “MLR IFN-gamma levels” value (allogeneic CD4+ T cells; [1]) is on record?
A: The value was 1003 pg/mL.

Q: What about the “Coimmobilization with anti CD3 IFN-gamma” value (human pan T cells) of the same molecule?
A: Its value is 62 pg/mL.

B14: L65H/D90G/T110A/F116L (protein)
chain: VIHVTKEVKEVATLSCGHNVSVEELAQTRIYWQKEKKMVLTMMSGDMNIWPEYKNRTIFDITNNHSIVILALRPSDEGTYECVVLKYEKGAFKREHLAEVTLSVKADFPAPSISDLEIPTSNIRRIICSTSGGFPEPHLSWLENGEELNAINTTVSQDPETELYAVSSKLDFNMTTNHSFMCLIKYGHLRVNQTFNWNTTKQEHFPDN
modifications: CD80 v141 ECD
Q: Which results are given for B14?
A: MLR IFN-gamma levels (allogeneic CD4+ T cells; [1]): 758 pg/mL; Coimmobilization with anti CD3 IFN-gamma (human pan T cells): 129 pg/mL

B15: A91G/L102S (protein)
chain: VIHVTKEVKEVATLSCGHNVSVEELAQTRIYWQKEKKMVLTMMSGDMNIWPEYKNRTIFDITNNLSIVILALRPSDEGTYECVVLKYEKDGFKREHLAEVTSSVKADFPTPSISDFEIPTSNIRRIICSTSGGFPEPHLSWLENGEELNAINTTVSQDPETELYAVSSKLDFNMTTNHSFMCLIKYGHLRVNQTFNWNTTKQEHFPDN
Q: B15 was tested. Which “MLR IFN-gamma levels” value (allogeneic CD4+ T cells; [1]) did it give?
A: Its value is 698 pg/mL.

Q: What about the “Coimmobilization with anti CD3 IFN-gamma” value (human pan T cells) of the same molecule?
A: The value was 75 pg/mL.

B16: V22A/L70Q/S121P (protein)
chain: VIHVTKEVKEVATLSCGHNVSAEELAQTRIYWQKEKKMVLTMMSGDMNIWPEYKNRTIFDITNNLSIVIQALRPSDEGTYECVVLKYEKDAFKREHLAEVTLSVKADFPTPSISDFEIPTPNIRRIICSTSGGFPEPHLSWLENGEELNAINTTVSQDPETELYAVSSKLDFNMTTNHSFMCLIKYGHLRVNQTFNWNTTKQEHFPDN
modifications: CD80 v33 ECD
Q: With B16 as the molecule, how does the “MLR IFN-gamma levels” value (allogeneic CD4+ T cells; [1]) read?
A: Its value is 976 pg/mL.

Q: What about the “Coimmobilization with anti CD3 IFN-gamma” value (human pan T cells) of the same molecule?
A: Its value is 105 pg/mL.
